Consider four variants from IntAct's records for PubMed 39009827.

B1: Epithelial sodium channel subunit beta (Homo sapiens), P51168 (parent)
chain: MHVKKYLLKGLHRLQKGPGYTYKELLVWYCDNTNTHGPKRIICEGPKKKAMWFLLTLLFAALVCWQWGIFIRTYLSWEVSVSLSVGFKTMDFPAVTICNASPFKYSKIKHLLKDLDELMEAVLERILAPELSHANATRNLNFSIWNHTPLVLIDERNPHHPMVLDLFGDNHNGLTSSSASEKICNAHGCKMAMRLCSLNRTQCTFRNFTSATQALTEWYILQATNIFAQVPQQELVEMSYPGEQMILACLFGAEPCNYRNFTSIFYPHYGNCYIFNWGMTEKALPSANPGTEFGLKLILDIGQEDYVPFLASTAGVRLMLHEQRSYPFIRDEGIYAMSGTETSIGVLVDKLQRMGEPYSPCTVNGSEVPVQNFYSDYNTTYSIQACLRSCFQDHMIRNCNCGHYLYPLPRGEKYCNNRDFPDWAHCYSDLQMSVAQRETCIGMCKESCNDTQYKMTISMADWPSEASEDWIFHVLSQERDQSTNITLSRKGIVKLNIYFQEFNYRTIEESAANNIVWLLSNLGGQFGFWMGGSVLCLIEFGEIIIDFVWITIIKLVALAKSLRQRRAQASYAGPPPTVAELVEAHTNFGFQPDTAPRSPNTGPYPSEQALPIPGTPPPNYDSLRLQPLDVIESDSEGDAI
B2: BRCA1-A complex subunit Abraxas 1 (Homo sapiens), Q6UWZ7 (parent)
chain: MEGESTSAVLSGFVLGALAFQHLNTDSDTEGFLLGEVKGEAKNSITDSQMDDVEVVYTIDIQKYIPCYQLFSFYNSSGEVNEQALKKILSNVKKNVVGWYKFRRHSDQIMTFRERLLHKNLQEHFSNQDLVFLLLTPSIITESCSTHRLEHSLYKPQKGLFHRVPLVVANLGMSEQLGYKTVSGSCMSTGFSRAVQTHSSKFFEEDGSLKEVHKINEMYASLQEELKSICKKVEDSEQAVDKLVKDVNRLKREIEKRRGAQIQAAREKNIQKDPQENIFLCQALRTFFPNSEFLHSCVMSLKNRHVSKSSCNYNHHLDVVDNLTLMVEHTDIPEASPASTPQIIKHKALDLDDRWQFKRSRLLDTQDKRSKADTGSSNQDKASKMSSPETDEEIEKMKGFGEYSRSPTF

Variants of B1 are the subject of one assay. As to conditions: with nedd4_human NEDD4, P46934.
nedd4_human NEDD4, P46934, sequence (P46934 whole entry): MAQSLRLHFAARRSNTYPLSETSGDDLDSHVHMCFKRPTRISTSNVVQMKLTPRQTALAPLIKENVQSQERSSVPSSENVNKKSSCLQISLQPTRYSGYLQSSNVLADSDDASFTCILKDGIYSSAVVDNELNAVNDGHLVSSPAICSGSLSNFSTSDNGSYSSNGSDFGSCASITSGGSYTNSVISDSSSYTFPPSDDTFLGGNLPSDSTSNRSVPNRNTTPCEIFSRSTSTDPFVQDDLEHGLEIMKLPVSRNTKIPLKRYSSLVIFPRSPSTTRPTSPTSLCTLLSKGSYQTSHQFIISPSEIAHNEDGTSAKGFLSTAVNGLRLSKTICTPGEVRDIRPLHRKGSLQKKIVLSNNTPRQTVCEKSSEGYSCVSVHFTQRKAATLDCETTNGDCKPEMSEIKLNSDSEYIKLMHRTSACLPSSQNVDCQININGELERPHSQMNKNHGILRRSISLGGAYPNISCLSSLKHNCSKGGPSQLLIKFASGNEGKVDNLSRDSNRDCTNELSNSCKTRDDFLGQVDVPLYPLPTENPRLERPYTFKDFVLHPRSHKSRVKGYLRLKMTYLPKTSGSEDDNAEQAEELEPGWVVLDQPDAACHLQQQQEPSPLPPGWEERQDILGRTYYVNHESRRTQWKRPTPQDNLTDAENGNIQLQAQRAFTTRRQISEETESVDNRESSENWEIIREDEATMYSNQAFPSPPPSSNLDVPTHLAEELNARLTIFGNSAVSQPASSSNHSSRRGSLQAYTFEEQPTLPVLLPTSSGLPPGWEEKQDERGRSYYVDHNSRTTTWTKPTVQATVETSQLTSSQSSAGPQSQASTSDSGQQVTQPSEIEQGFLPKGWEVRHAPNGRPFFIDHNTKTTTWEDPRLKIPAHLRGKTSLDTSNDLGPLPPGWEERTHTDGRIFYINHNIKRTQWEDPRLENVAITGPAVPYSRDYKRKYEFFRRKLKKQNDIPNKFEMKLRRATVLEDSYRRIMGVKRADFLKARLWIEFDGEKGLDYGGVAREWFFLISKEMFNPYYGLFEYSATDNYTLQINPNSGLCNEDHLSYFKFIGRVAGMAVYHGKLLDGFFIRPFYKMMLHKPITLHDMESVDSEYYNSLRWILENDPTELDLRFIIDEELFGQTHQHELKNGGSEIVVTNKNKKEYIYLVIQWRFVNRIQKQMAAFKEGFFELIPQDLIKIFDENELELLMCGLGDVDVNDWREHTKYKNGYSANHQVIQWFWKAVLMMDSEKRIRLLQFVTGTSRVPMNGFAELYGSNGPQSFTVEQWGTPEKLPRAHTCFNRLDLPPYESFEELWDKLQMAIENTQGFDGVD
Consider P617S, for which the “effect of a mutation on the interaction” value is reported as “decreasing interaction strength”.

As to Y620H, the “effect of a mutation on the interaction” value is reported as “decreasing interaction strength”.

Take P618R: the “effect of a mutation on the interaction” value is “decreasing interaction strength”.

A further assay covers variants of B1. As to conditions: with wwtr1_human WWTR1, Q9GZV5.
wwtr1_human WWTR1, Q9GZV5, sequence (Q9GZV5 whole entry): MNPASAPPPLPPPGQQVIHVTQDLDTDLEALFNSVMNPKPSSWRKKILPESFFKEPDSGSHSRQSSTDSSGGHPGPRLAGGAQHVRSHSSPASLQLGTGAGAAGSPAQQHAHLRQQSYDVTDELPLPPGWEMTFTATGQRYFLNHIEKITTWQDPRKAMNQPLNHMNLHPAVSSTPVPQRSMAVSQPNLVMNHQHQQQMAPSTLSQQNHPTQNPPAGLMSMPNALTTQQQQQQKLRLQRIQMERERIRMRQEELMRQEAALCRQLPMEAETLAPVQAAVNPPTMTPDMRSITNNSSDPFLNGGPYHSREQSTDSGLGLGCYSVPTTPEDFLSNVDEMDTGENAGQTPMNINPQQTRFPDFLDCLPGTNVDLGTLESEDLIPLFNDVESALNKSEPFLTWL
On to P617S, for which the “effect of a mutation on the interaction” value is “decreasing interaction strength”.

For the variant Y620H, the “effect of a mutation on the interaction” value was “decreasing interaction strength”.

Take P618R: the “effect of a mutation on the interaction” value was “decreasing interaction strength”.

Variants of B2 are the subject of another assay. To be noted: with ima3_human KPNA4, O00629.
ima3_human KPNA4, O00629, sequence (O00629 whole entry): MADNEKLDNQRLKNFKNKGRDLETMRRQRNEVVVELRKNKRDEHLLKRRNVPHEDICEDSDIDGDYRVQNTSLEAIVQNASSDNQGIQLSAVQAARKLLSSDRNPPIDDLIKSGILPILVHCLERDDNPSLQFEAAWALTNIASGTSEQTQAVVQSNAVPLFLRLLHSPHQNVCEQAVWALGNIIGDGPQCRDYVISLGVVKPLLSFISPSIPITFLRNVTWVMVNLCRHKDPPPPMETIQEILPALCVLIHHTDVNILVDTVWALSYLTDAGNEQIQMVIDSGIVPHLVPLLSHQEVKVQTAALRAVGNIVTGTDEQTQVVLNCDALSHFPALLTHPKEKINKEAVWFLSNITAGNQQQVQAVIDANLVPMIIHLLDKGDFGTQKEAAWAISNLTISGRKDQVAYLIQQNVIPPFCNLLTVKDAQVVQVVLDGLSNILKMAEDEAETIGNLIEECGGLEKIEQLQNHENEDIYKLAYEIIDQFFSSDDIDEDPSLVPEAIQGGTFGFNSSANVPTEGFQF
Consider R361Q, for which the “effect of a mutation on the interaction” value is “decreasing interaction strength”.
